Test results as given in patent US20090317330A2, “DIAGNOSIS AND TREATMENT OF DISEASES INVOLVING PLATELET ACTIVATION” (Baker IDI Heart and Diabetes Institute Holdings Limited, priority 2007, published 2009).

B1: LT-α: rat-recombinant lymphotoxin-α microinjected into the striatum (protein, UniProt Q06332 34-202, looked up)
Lymphotoxin-alpha: LSGVRFSASRTAHQPPQKHLTHGLLKPAAHLVGYPSKQNSLLWRANTDRAFLRHGFSLNNNSLLIPTSGLYFVYSQVVFSGESCSPRAIPTPIYLAHEVQLFSSQYPFHVPLLSAQKSVYPGLQGPWVRSMYQGAVFLLSKGDQLSTHTDGISHLHFSPSTVFFGAFAL
B2: IL-1β: rat-recombinant interleukin-1β microinjected into the striatum (protein, UniProt Q63264 117-268, looked up)
Interleukin-1 beta: VPIRQLHCRLRDEQQKCLVLSDPCELKALHLNGQNISQQVVFSMSFVQGETSNDKIPVALGLKGLNLYLSCVMKDGTPTLQLESVDPKQYPKKKMEKRFVFNKIEVKTKVEFESAQFPNWYISTSQAEHRPVFLGNSNGRDIVDFTMEPVSS

System: platelet adhesion to brain endothelium
Test: Platelet and leukocyte immunohistochemistry after intrastriatal cytokine microinjection (rat)
Type: in vivo
Conditions: versus vehicle, TNF at 24 h
Method: Rat-recombinant TNF and IL-1[…] were obtained from the National Institute for Biological Standards and Controls (NIBSC, Potters Bar, UK). Rat-recombinant LT-[…] and mouse-recombinant TNF was purchased from R&D Systems (Abingdon, UK). The cytokines were dissolved in endotoxin-free saline (vehicle). The cytokines contained a maximum of 100 IU endotoxin/mg cytokine (corresponding to 10 ppm by weight), which, in view of previous studies, was considered negligible in the context of these experiments.
12-week-old male Wistar rats or 8-week-old NMRI mice were used for the injection of the recombinant cytokines (Charles River, Margate, UK). Both rats and mice responded to the injection of cytokines in an identical manner. […]
Frozen, 10 μm-thick serial coronal sections were cut from tissue blocks. […] The numbers of positive cells present in the brain were quantitated. For each tissue section, 4 representative fields were chosen and the average number of positive cells was calculated and expressed as number of cells per mm^2.
The p55 mouse anti-rat platelet GPIIa monoclonal antibody was a kind gift from Kirin Brewery Co Ltd, Takasaki, Japan. The numbers of platelet positive elements present in the brain were quantitated. For each tissue section, 6 representative fields were chosen and the average number of positive elements was calculated and expressed as number of discrete elements per mm^2.

Molecule | number of platelet positive elements
B1 | did not increase
B2 | did not increase
